According to patent US20150104459A1:

B1: TCN-554 (5277_M05) (antibody, V domains shown)
VH: QVQLVQSGADLKKPGASVKVSCKASGYTFTDYYIHWVRQAPGQGLEWMGWINPESGDTKYAQKFQGRVTMTRDTSITTAYMELGRLRSDDTAVYYCARDVSTTWSWFAPWGQGTLVTVSS
VL: DIVMTQSPDSLAVSLGERATINCRSSQSIFHNSNNENYLAWYQQKPGQPPKLLIYWASTRESGVPDRFSGSGSGTDFTLTISSLQAEDVAVYFCQQYYNAPLTFGGGTKVEIK
B2: TCN-526 (5084_C17) (antibody, V domains shown)
VH: EVLMVESGGGLVQPGGSVRLSCVASGFSFSSHWMTWVRQAPGKGLEWVANIEDDGGDKYYVDSVKGRFIISRDNAKNSVYLQMNSLRAEDTAVYFCARGSGSSDRSDYDPHYYYYLDVWGKGATVTVSS
VL: DIQLTQSPSSLSASVGDRVTITCRASQSISRYLNWYQQKPGKAPKLLLFAASTLLDGVPSRFSGSGSGTDFTLTISSLQPEDFATYYCQRNHSPSWTFGQGTRVEIK
B3: TCN-542 (5079_A16) (antibody, V domains shown)
VH: QVQLQESGPGLVKPSQTLSLTCTVSGGSISSGNYYWNWVRQHPGKGLEWIGYIYYRGSTFYNPSLKSRVTISIDTSKNQFSLRLSSVTAADTAVYYCAKDTRSSLDNYQYGMDVWGQGTTVTVSS
VL: QTVVTQEPSLTVSPGGTVTLTCASSTGAVTSSYFPNWFQQKPGQAPRPLIYSTTIRHSWTPARFSGSLLGGKAALTLSGVQPEDEADYYCLLYSGGDPVAFGGGTKLTVL
B4: TCN-522 (3212_I12) (antibody, V domains shown)
VH: QVQLQQWGAGLLKPSETLSLTCTVSGGSLTDYSWNWIRQPPGKGLEWIGDTLHNGYTNYNPSLRGRVSISIDTSKNQVSLRLTSVTAADTALYYCARGSGGYGGFDYFGKLRTWDFWGQGTLVTVSS
VL: DIQLTQSPSSLSASVGDRVTITCRASQGIRNDLGWYQQKPGNAPKRLIFGASSLQSGVPSRFSGSGSGTEFTLTISSLQPEDFATYYCLQHNSYPYTFGQGTKLEIK
B5: TCN-547 (5092_F11) (antibody, V domains shown)
VH: QVQLQESGPGLVKPSQTLSLTCTVSGDSISSVDHYWSWIRQHPVKGLEWIGFMYYSASTYYNPSLKSRVTISTDTSKNQFSLRLSSVTAADTAVYYCARGTCAGDCSLHYYYYGLDVWGQGRTVTVSS
VL: DIQMTQSPSSLSASVGDRVTITCRASQSISSYLNWYQHKPGKAPKVLMYAVSILQSGVPSRFSGSGSGADFTLTISSLQPEDFATYYCQQSYSSPLTFGGGTKVEIK

What was measured:
Settings in all cases: remark: other sources report otherwise
[1] = target: recombinant soluble homotrimeric HA of A/Japan/305/57 (H2N2) (Influenza A virus A/Japan/305/1957 (H2N2)); assay: HA microarray, BCC supernatant
[2] = target: recombinant soluble homotrimeric HA of A/Wisconsin/67/05 (H3N2) (Influenza A virus A/Wisconsin/67/2005 (H3N2)); assay: HA microarray, BCC supernatant
[3] = target: recombinant soluble homotrimeric HA of A/chicken/Vietnam/NCVD-016/08 (H5N1) (Influenza A virus A/chicken/Vietnam/NCVD-016/2008 (H5N1)); assay: HA microarray, BCC supernatant
[4] = target: recombinant soluble homotrimeric HA of A/Netherlands/219/03 (H7N7) (Influenza A virus A/Netherlands/219/03 (H7N7)); assay: HA microarray, BCC supernatant
[5] = target: recombinant soluble homotrimeric HA of A/swine/Ontario/01911-2/99 (H4N6) (Influenza A virus A/Swine/Ontario/01911-2/99 (H4N6)); assay: HA microarray, BCC supernatant
[6] = target: recombinant soluble homotrimeric HA, A/Netherlands/219/03 (H7N7) (influenza A virus A/Netherlands/219/03 (H7N7)); assay: microarray, trimeric HA, transfection supernatant
[7] = target: recombinant soluble homotrimeric HA, A/chicken/Vietnam/NCVD-016/08 (H5N1) (influenza A virus A/chicken/Vietnam/NCVD-016/2008 (H5N1)); assay: microarray, trimeric HA, transfection supernatant
[8] = target: recombinant soluble homotrimeric HA, A/duck/Yangzhou/02/2005 (H8N4) (influenza A virus A/duck/Yangzhou/02/2005 (H8N4)); assay: microarray, trimeric HA, transfection supernatant
[9] = target: T1, recombinant homotrimeric HA, A/swine/Ontario/01911-2/99 H4N6 (Influenza A virus A/swine/Ontario/01911-2/99 (H4N6)); assay: trimeric HA microarray; transfection supernatant set 5
[10] = target: T2, recombinant homotrimeric HA, A/Solomon Islands/3/06 H1N1 (Influenza A virus A/Solomon Islands/3/06 (H1N1)); assay: as above
[11] = target: recombinant soluble homotrimeric HA of A/Solomon Islands/3/06 (H1N1) (Influenza A virus A/Solomon Islands/3/2006 (H1N1)); assay: HA microarray, BCC supernatant
[12] = target: T2, recombinant homotrimeric HA, A/Solomon …; assay: trimeric HA microarray; transfection supernatant set 2
[13] = target: recombinant soluble homotrimeric HA of A/duck/Yangzhou/02/2005 (H8N4) (Influenza A virus A/duck/Yangzhou/02/2005 (H8N4)); assay: HA microarray, BCC supernatant
[14] = target: recombinant soluble homotrimeric HA, A/Hong Kong/156/97 (H5N1) (influenza A virus A/Hong Kong/156/97 (H5N1)); assay: microarray, trimeric HA, transfection supernatant
[15] = target: recombinant soluble homotrimeric HA, A/Anhui/1/05 (H5N1) (influenza A virus A/Anhui/1/2005 (H5N1)); assay: microarray, trimeric HA, transfection supernatant
[16] = target: recombinant soluble homotrimeric HA, A/northern shoveler/California/HKWF115/2007 (H6N1) (influenza A virus A/northern shoveler/California/HKWF115/2007 (H6N1)); assay: microarray, trimeric HA, transfection supernatant
[17] = target: recombinant homotrimeric HA, A/Japan/305/57 H2N2 (Influenza A virus A/Japan/305/57 (H2N2)); assay: trimeric HA microarray; transfection supernatant set 5
[18] = target: recombinant soluble homotrimeric HA of A/Vietnam/1203/04 (H5N1) (Influenza A virus A/Vietnam/1203/2004 (H5N1)); assay: HA microarray, BCC supernatant
[19] = target: recombinant soluble homotrimeric HA of A/Indonesia/5/05 (H5N1) (Influenza A virus A/Indonesia/5/2005 (H5N1)); assay: HA microarray, BCC supernatant
[20] = target: recombinant soluble homotrimeric HA of A/California/4/09 (H1N1) (Influenza A virus A/California/04/2009 (H1N1)); assay: HA microarray, BCC supernatant
[21] = target: T1, recombinant homotrimeric HA, …; assay: trimeric HA microarray; transfection supernatant set 2
[22] = target: recombinant homotrimeric HA, A/California/4/09 H1N1 (Influenza A virus A/California/4/09 (H1N1)); assay: trimeric HA microarray; transfection supernatant set 5

| Binder | Trimeric HA Binding RLU [1] [RLU] | Trimeric HA Binding RLU [2] [RLU] | Trimeric HA Binding RLU [3] [RLU] | Trimeric HA Binding RLU [4] [RLU] | Trimeric HA Binding RLU [6] [RLU] | Trimeric HA Binding RLU [7] [RLU] | Trimeric HA Binding RLU [8] [RLU] | Trimeric HA Binding RLU [11] [RLU] | Trimeric HA Binding RLU [13] [RLU] | Trimeric HA Binding RLU [16] [RLU] | Trimeric HA Binding RLU [20] [RLU] | further results |
| --- | --- | --- | --- | --- | --- | --- | --- | --- | --- | --- | --- | --- |
| B1 | 328 | 46500 | 250 | 610 | 4520 | 2710 | 5810 | – | – | – | – | Trimeric HA Binding RLU [5]: 78 RLU; Trimeric HA Binding: RLU [9]: 5400 RLU; Trimeric HA Binding: RLU [10]: 992 RLU |
| B2 | 246 | 49300 | 179 | – | – | – | – | 341 | – | – | – | Trimeric HA Binding: RLU [12]: 1470 RLU |
| B3 | 142 | – | – | – | – | 5460 | 11600 | – | 332 | 2370 | – | Trimeric HA Binding RLU [14]: 786 RLU; Trimeric HA Binding RLU [15]: 7410 RLU; Trimeric HA Binding: RLU [17]: 5180 RLU |
| B4 | 989 | 302 | – | – | – | – | – | 38900 | – | – | 5020 | Trimeric HA Binding RLU [18]: 145 RLU; Trimeric HA Binding RLU [19]: 67 RLU; Trimeric HA Binding: RLU [21]: 1050 RLU |
| B5 | 40 | 16900 | 198 | 401 | 2090 | 1320 | 3340 | 155 | 278 | 2620 | 170 | Trimeric HA Binding: RLU [22]: 1470 RLU |
